The values that follow come from article PMC11764276 (2024).

Holding throughout (assay): SPR
In experiment [1] the target is T1, RBD (residues 334–527 of the SARS-CoV-2 spike glycoprotein) (SARS-CoV-2, UniProt P0DTC2 334-527).
Experiment [2] has as its target T1, RBD (residues 334–527 of the SARS-CoV-2 …). The source holds these as a separate data set.
For experiment [3] the target is unchanged. This is another data set of the same source.

Like-named read-outs stand apart in the source and are kept apart here.

B1: 2196_CDRL3_RP (antibody, V domains shown)
VH: QMQLVQSGPEVKKPGTSVKVSCKASGFTFMSSAVQWVRQARGQRLEWIGWIVIGSGNTNYAQKFQERVTITRDMSTSTAYMELSSLRSEDTAVYYCAAPYCSSISCNDGFDIWGQGTMVTVSS
VL: not shown
The koff is the rate constant with which the complex falls apart. What is called Kd is the concentration at which binding is half-saturated. A higher Kd goes with lower affinity. The molecule B1 registered a koff in experiment [1] of 0.12 s⁻¹. Also, the figures for the Kd in experiment [2] and in experiment [3] were 204 nM and 203 nM, respectively.

B2: 2196_CDRL1_des2 (antibody, V domains shown)
VH: QMQLVQSGPEVKKPGTSVKVSCKASGFTFMSSAVQWVRQARGQRLEWIGWIVIGSGNTNYAQKFQERVTITRDMSTSTAYMELSSLRSEDTAVYYCAAPYCSSISCNDGFDIWGQGTMVTVSS
VL: EIVLTQSPGTLSLSPGERATLSCRASQTISNSYVAWYQQKPGQAPRLLIYGASSRATGIPDRFSGSGSGTDFTLTISRLEPEDFAVYYCQHYGSSRGWTFGQGTKVEIK
Turning to B2, in experiment [1], the koff came to 0.0216 s⁻¹.

B3: 2196_CDRL3_GP (antibody, V domains shown)
VH: QMQLVQSGPEVKKPGTSVKVSCKASGFTFMSSAVQWVRQARGQRLEWIGWIVIGSGNTNYAQKFQERVTITRDMSTSTAYMELSSLRSEDTAVYYCAAPYCSSISCNDGFDIWGQGTMVTVSS
VL: not shown
With B3, the koff in experiment [1] is 0.0133 s⁻¹.

B4: 2196_CDRL1_des1 (antibody, V domains shown)
VH: QMQLVQSGPEVKKPGTSVKVSCKASGFTFMSSAVQWVRQARGQRLEWIGWIVIGSGNTNYAQKFQERVTITRDMSTSTAYMELSSLRSEDTAVYYCAAPYCSSISCNDGFDIWGQGTMVTVSS
VL: EIVLTQSPGTLSLSPGERATLSCRASQTISNNFVAWYQQKPGQAPRLLIYGASSRATGIPDRFSGSGSGTDFTLTISRLEPEDFAVYYCQHYGSSRGWTFGQGTKVEIK
Regarding B4, the off-rate constant (koff) in experiment [1] was found to be 0.0823 s⁻¹. The molecule further yielded a Kd in experiment [3] of 47.6 nM.

B5: 2196_CDRL3_Q (antibody, V domains shown)
VH: QMQLVQSGPEVKKPGTSVKVSCKASGFTFMSSAVQWVRQARGQRLEWIGWIVIGSGNTNYAQKFQERVTITRDMSTSTAYMELSSLRSEDTAVYYCAAPYCSSISCNDGFDIWGQGTMVTVSS
VL: not shown
For B5, the koff in experiment [1] came out at 0.0171 s⁻¹.

B6: DMAb-2196_CDRL3_P (antibody, V domains shown)
VH: QMQLVQSGPEVKKPGTSVKVSCKASGFTFMSSAVQWVRQARGQRLEWIGWIVIGSGNTNYAQKFQERVTITRDMSTSTAYMELSSLRSEDTAVYYCAAPYCSSISCNDGFDIWGQGTMVTVSS
VL: not shown
Consider B6, for which the koff in experiment [1] amounted to 0.1 s⁻¹. Further, the Kd in experiment [3] amounted to 88.5 nM.

B7: 2196 WT (recombinant mAb COV2-2196) (antibody, V domains shown)
VH: QMQLVQSGPEVKKPGTSVKVSCKASGFTFMSSAVQWVRQARGQRLEWIGWIVIGSGNTNYAQKFQERVTITRDMSTSTAYMELSSLRSEDTAVYYCAAPYCSSISCNDGFDIWGQGTMVTVSS
VL: not shown
B7 returned a koff in experiment [1] of 0.0133 s⁻¹.

B8: 2196 HC + 2072 LC (antibody, V domains shown)
VH: QMQLVQSGPEVKKPGTSVKVSCKASGFTFMSSAVQWVRQARGQRLEWIGWIVIGSGNTNYAQKFQERVTITRDMSTSTAYMELSSLRSEDTAVYYCAAPYCSSISCNDGFDIWGQGTMVTVSS
VL: not shown
In experiment [1], B8 came in with a koff of 0.0309 s⁻¹.
